The sequences below were run on K4 kissing-loop RNA reporter (assay: apparent KD of K4 kissing-loop reporter; higher = weaker reporter binding). Details: Eterna round: R107; input ligand: tryptophan 2.4 mM.
Method: (§1)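 RNA-MaP round R107: designed RNA switches with theophylline, tryptophan, arginine or FMN aptamers are transcribed on-chip within common flanks. They are titrated with a labelled K4 kissing-loop RNA reporter in RNA-MaP buffer (100 mM Tris pH 7.5, 80 mM KCl, 4 mM MgCl2), without ligand or with the indicated ligand. Median apparent KD per design.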
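For apparent KD of K4 kissing-loop reporter in this document: bound reporter read as fluorescence of individual clusters on recovered sequencing chips by microscopy, with normalized cluster intensities fitted with a binding model.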

| Sequence | apparent KD of K4 kissing-loop reporter [nM] |
| --- | --- |
| CCUAUCUCAUACGAUACCAGUCAAUUAAAUUUUAUAAAUGCCAUCACCGAGUGAUGUUCGGACCCUUGGCAGCGUAUGGGAUAGG [Ex Theophylline B K4 2] | 187 |
| CCAGGACGAUGAGGAGGAUGAAUUACUGAAGGAGCGCAUAUGGUUGCAGGUAGGUCGCGGUGAACAAGUAUAGUGAUGUUAUACC [SSArgA.T] | 445 |
| GCGCGUCAUGUCAGCGGUGACUACGUCGAUACCAGCAGGGAAACCUGCCCUUGGCAGCGACGCGCUGGAGUGAUGUUCCGACGGA [#2 Exclusion - Theophylline A Attempt #6 (HarryS)] | 442 |
| CUCGAGUGAUGUUCGAUUAUUUAUACAGAUACCAGUGAAUUUUAACACCCUUGGCAGCUGGUUGUAUCUUUGUAAUUUACACAAG [JR_ExcTheophyA_Sub005] | 93.6 |
| AGAAGGAGAACUGCAAGAACUCCUUCAGACUAGGAUAUCAGGAAACUGAGAAGGAGUCAACUUGCAGUGAUGUUGCAAGAAUAAU [[F]''-[K]'-[F]'-[F1]-[F2]-[K1]-[K2]_Design1] | 131 |
| ACGGGCGGCUGAAGGAGCGGGCGGGCCCGAGUGAUGUUCGGGUGGGCCGUGAGGCCCGGAGCCCAGGUAGGUCGCGGUUCCGUCC [#2 Same State - Arginine B Attempt #21 (HarryS)] | 164 |
| CUGGGUUGACGAAAAGUCAACAAACGAGAAGGAGCGCACGAAAGUGCAGGUAGGUCGCUCAGUCCAGUGAUGUUGGAUCAUCCAG [#SwitchBubble 9 #K4Late] | 323 |
| GAAUUAUGUAGAAGGAGCGUUAGAAGGUAUAGGUGUGAGUGAUGUUCGGAUUUGUUAAUUUGACAGGUAGGUCGCUACAGAAGGA [KL-SSArg B17 #analogue] | 106 |
| UUGAGCCGGACUCAAGUCCGGCUCUGCGAGCGAGGACCGGUACGGCCGCCACUCGGUGCAGUGAUGUUGCAUGGCCGCAAGGCCG [#2 Exclusion - Tryptophan A Attempt #13 (HarryS)] | 520 |
| UGUGGUGUAUCCUUUAGGAGUGAUGUUUUUCGAGGACCGGUACGGCCGCCACUCGAGUGAUGAGAGCGUCGUUGUGGUGGUUUGU [#16 K4 Tryptophan A Exclusion] | 730 |
| AAAAUAAACCAGUGAUGUUGGUGUCUAGAUACCAGCGACGAAAGUCGCCCUUGGCAGCUAUGGACGUACAAAAUAAGUACGUCCU [MatMod 6 - Jieux - Same State - Theophylline A] | 612 |
| AAAUUUUAAAGUGAUACCAGACAUCUCUAUUACAUUAAUAUAGCUAAGUGAUGUUUAGCAGUCCCUUGGCAGCACAAUUUAAUUA [JR_SSTheophyB_Sub012] | 266 |
| AGUUCUUGCCGAAGGAGCGAGGCAGAGUGAUGUUCUGCAGAUGUCGAAAGACAUCAACUGCCUCAGGUAGGUCGCGGCAUGAACA [#05 K4 Arginine B Exclusion] | 108 |
| UUGAUAUGAUAAUAUCCUGUUUGAUAAAGACAGGAUAUAGAAAAUACUAGAAGGGUCAUUAUAUGCAGUGAUGUUGCAAAUAAGU [Exclusion FMN A Gf 23] | 37.6 |
| UGAUACCAGACUGAUACCAGCUAGUGAUGUUAGCUAAAAUCAGGGUCAAAGACCCUGUCUGGCCCUUGGCAGCAGUCUGGUAUCU [TheoBX 10 #SwitchBubble #StaticStem] | 120 |
| CAAUGAGUAUAAGAUGAUAUCAUAACAGAAGGAGCGAGUGAUAACUCAGGUAGGUCGCUGAAUUUAUCGAGUGAUGUUCGAUAAA [whbob_SS_Arginine_A_sa116] | 184 |
| UGUGUUUACCUGACUCAGUGAUGUUGAGAAGGAGCGUGCAAAAGCACAGGUAGGUCGCUCAACCUAAAUUCAGGUGAGCACUAAA | 264 |

Each sequence was assayed on MS2 coat protein (assay: apparent KD of MS2 coat protein; higher = weaker reporter binding). Details: Eterna round: R107; input ligand: arginine 13.2 mM.
Method: as §1, with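 “SNAP-549-labelled MS2 coat protein” for “a labelled K4 kissing-loop RNA reporter”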

| Sequence | apparent KD of MS2 coat protein [nM] |
| --- | --- |
| AACAUGUGGAUCACCCAUGUAUGUUCUGAAGGAGCGCCACAUGAGGCAGGUAGGUCGCAGGUACAUGAGGAUCACCCAUGUGUCA [Exclusion Arginine A 4] | 54.5 |
| GGGAGGGAGGCGGCCGCCACUGAUUUUCAUAUAUAUAUAACAUGAGGAUCACCCAUGUAGAUAUACAGGACCGGGCCUUUUUUUU [aaaG] | 14.6 |
| AACCGAGGCUAUCCUCUAAGACUAUGUGAUACCAGAAUAAUUUUAUUCCCUUGGCAGCAUGACAUGAGGAUCACCCAUGUCUCUU [SSTheo A #8] | 21 |
| AGCCCUGUGCUAGAUACCAGCUACAUGAGGAUCACCCAUGUGCGUCAAGACUGACUGUGUAGCCCUUGGCAGCUACUCGCAUGUA [Exclusion - Theophylline B (Freestyle 4)] | 11.9 |
| CUCCCGUGGUCGGCCGCCACUGGAGGCCUCGCGCGACAUGAGGAUCACCCAUGUUGGCCCGGCGUCAGGACCGGGAUCGCGUGAG [#1 Same State - Tryptophan B Attempt #9 (HarryS)] | 11.8 |
| UGGCAGGAGUGAUCCUCCUGCCAAGGUGAUACCAGCAUCGAAAGAUGCCCUUGGCAGCACCAACAUGAGGAUCACCCAUGUAAUA [(MT)''-(M)'-(T')-(Theo)-(Ms2)_Design1/22_10] | 34.1 |
| UUCUGGACCCGUGAUACCAGAGACAUGAGGAUCACCCAUGUACAUGAGGAUCACCCAUGUCUCCCUUGGCAGCACUGCAGGGAGC [Exclusion Theophylline B GF 14] | 45.4 |
| AAUAAACAUGAGGAUCACCCAUGUUGUUGACGAGGACCGGUACGGCCGCCACUCGACAUGAGGAUCACCCAUGUUGUCACAUGAG [Same State Tryptophan A] | 73.1 |

Same assay, conditions: Eterna round: R107; input ligand: none

| Sequence | apparent KD of MS2 coat protein [nM] |
| --- | --- |
| AACAUGUGGAUCACCCAUGUAUGUUCUGAAGGAGCGCCACAUGAGGCAGGUAGGUCGCAGGUACAUGAGGAUCACCCAUGUGUCA [Exclusion Arginine A 4] | 192 |
| CUCCCGUGGUCGGCCGCCACUGGAGGCCUCGCGCGACAUGAGGAUCACCCAUGUUGGCCCGGCGUCAGGACCGGGAUCGCGUGAG [#1 Same State - Tryptophan B Attempt #9 (HarryS)] | 11 |

Same assay, conditions: Eterna round: R107; input ligand: theophylline 20 uM

| Sequence | apparent KD of MS2 coat protein [nM] |
| --- | --- |
| AACAUGUGGAUCACCCAUGUAUGUUCUGAAGGAGCGCCACAUGAGGCAGGUAGGUCGCAGGUACAUGAGGAUCACCCAUGUGUCA [Exclusion Arginine A 4] | 111 |
| GGGAGGGAGGCGGCCGCCACUGAUUUUCAUAUAUAUAUAACAUGAGGAUCACCCAUGUAGAUAUACAGGACCGGGCCUUUUUUUU [aaaG] | 33.8 |
| AACCGAGGCUAUCCUCUAAGACUAUGUGAUACCAGAAUAAUUUUAUUCCCUUGGCAGCAUGACAUGAGGAUCACCCAUGUCUCUU [SSTheo A #8] | 27.4 |
| AGCCCUGUGCUAGAUACCAGCUACAUGAGGAUCACCCAUGUGCGUCAAGACUGACUGUGUAGCCCUUGGCAGCUACUCGCAUGUA [Exclusion - Theophylline B (Freestyle 4)] | 19 |
| CUCCCGUGGUCGGCCGCCACUGGAGGCCUCGCGCGACAUGAGGAUCACCCAUGUUGGCCCGGCGUCAGGACCGGGAUCGCGUGAG [#1 Same State - Tryptophan B Attempt #9 (HarryS)] | 10.3 |
| UGGCAGGAGUGAUCCUCCUGCCAAGGUGAUACCAGCAUCGAAAGAUGCCCUUGGCAGCACCAACAUGAGGAUCACCCAUGUAAUA [(MT)''-(M)'-(T')-(Theo)-(Ms2)_Design1/22_10] | 177 |
| UUCUGGACCCGUGAUACCAGAGACAUGAGGAUCACCCAUGUACAUGAGGAUCACCCAUGUCUCCCUUGGCAGCACUGCAGGGAGC [Exclusion Theophylline B GF 14] | 169 |
| AAUAAACAUGAGGAUCACCCAUGUUGUUGACGAGGACCGGUACGGCCGCCACUCGACAUGAGGAUCACCCAUGUUGUCACAUGAG [Same State Tryptophan A] | 190 |

Same assay, conditions: Eterna round: R107; input ligand: theophylline 2 mM

| Sequence | apparent KD of MS2 coat protein [nM] |
| --- | --- |
| AACAUGUGGAUCACCCAUGUAUGUUCUGAAGGAGCGCCACAUGAGGCAGGUAGGUCGCAGGUACAUGAGGAUCACCCAUGUGUCA [Exclusion Arginine A 4] | 193 |
| GGGAGGGAGGCGGCCGCCACUGAUUUUCAUAUAUAUAUAACAUGAGGAUCACCCAUGUAGAUAUACAGGACCGGGCCUUUUUUUU [aaaG] | 22.8 |
| CUCCCGUGGUCGGCCGCCACUGGAGGCCUCGCGCGACAUGAGGAUCACCCAUGUUGGCCCGGCGUCAGGACCGGGAUCGCGUGAG [#1 Same State - Tryptophan B Attempt #9 (HarryS)] | 12.1 |
| AAUAAACAUGAGGAUCACCCAUGUUGUUGACGAGGACCGGUACGGCCGCCACUCGACAUGAGGAUCACCCAUGUUGUCACAUGAG [Same State Tryptophan A] | 256 |

Same assay, conditions: Eterna round: R107; input ligand: tryptophan 2.4 mM

| Sequence | apparent KD of MS2 coat protein [nM] |
| --- | --- |
| AACAUGUGGAUCACCCAUGUAUGUUCUGAAGGAGCGCCACAUGAGGCAGGUAGGUCGCAGGUACAUGAGGAUCACCCAUGUGUCA [Exclusion Arginine A 4] | 158 |
| AACCGAGGCUAUCCUCUAAGACUAUGUGAUACCAGAAUAAUUUUAUUCCCUUGGCAGCAUGACAUGAGGAUCACCCAUGUCUCUU [SSTheo A #8] | 26 |
| AGCCCUGUGCUAGAUACCAGCUACAUGAGGAUCACCCAUGUGCGUCAAGACUGACUGUGUAGCCCUUGGCAGCUACUCGCAUGUA [Exclusion - Theophylline B (Freestyle 4)] | 12.5 |
| CUCCCGUGGUCGGCCGCCACUGGAGGCCUCGCGCGACAUGAGGAUCACCCAUGUUGGCCCGGCGUCAGGACCGGGAUCGCGUGAG [#1 Same State - Tryptophan B Attempt #9 (HarryS)] | 10.8 |
| UGGCAGGAGUGAUCCUCCUGCCAAGGUGAUACCAGCAUCGAAAGAUGCCCUUGGCAGCACCAACAUGAGGAUCACCCAUGUAAUA [(MT)''-(M)'-(T')-(Theo)-(Ms2)_Design1/22_10] | 104 |
| UUCUGGACCCGUGAUACCAGAGACAUGAGGAUCACCCAUGUACAUGAGGAUCACCCAUGUCUCCCUUGGCAGCACUGCAGGGAGC [Exclusion Theophylline B GF 14] | 133 |
